The results in this text go back to patent US11214614B2, “LTBP complex-specific inhibitors of TGFβ and uses thereof” (Scholar Rock, Inc., priority 2019, dated 2022).

For assay [1], the target named is huLTBP3 proTGFβ1 (Homo sapiens, UniProt P01137+Q9NS15). In words: Octet (BLI) binding, IgG captured on AHC tips, antigen at 100 nM. The settings on record: IgG1-agly; for Hu LTBP3-proTGFβ1 Kon / Hu LTBP3-proTGFβ1 Koff: Table 9, cycle 3; for Hu LTBP3-proTGFβ1 Koff: 5-minute dissociation; for Affinity for human LTBP3 complexed with proTGFβ1: Table 8, Octet. An outline of the steps:
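Antibodies loaded at 1 μg/mL onto anti-human Fc sensors were exposed to each TGFβ1 complex at 100 nM in kinetics buffer. Association ran 3 min; dissociation was 3 min in one protocol and 5 min in another. KD came from a 1:1 fitting model.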

Assay [2] has as its target huLTBP1 proTGFβ1 (Homo sapiens, UniProt P01137+Q14766). The description is as above. The settings on record: for Hu LTBP1-proTGFβ1 Kon / Hu LTBP1-proTGFβ1 Koff: Table 9, cycle 3; for Hu LTBP1-proTGFβ1 Kon / Hu LTBP1-proTGFβ1 Koff / Affinity for human LTBP1 complexed with proTGFβ1: IgG1-agly; for Hu LTBP1-proTGFβ1 Kon: 1:1 fit; for Hu LTBP1-proTGFβ1 Koff: 5-minute dissociation; for Response, binding to human LTBP-1 proTGFb1: Octet, antibody immobilized (loading sample); for Affinity for human LTBP1 complexed with proTGFβ1: Table 8, Octet. An outline of the steps: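 Antibodies were captured on anti-human Fc biosensors at 1 μg/mL (~7 nM), to a maximum response of 1 nm. Antigen complex was run at a single 100 nM in 1× kinetics buffer, shaking at 1000 rpm. Association was 3 min and dissociation 3 min (5 min in later rounds), with KD from a local, full 1:1 fit.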

In assay [3] the target is huGARP proTGFβ1 (Homo sapiens, UniProt P01137). Described as above. The settings on record: for ForteBio IgG KD Hu GARP-proTGFβ1 (M) Avid: IgG1-agly, 1:1 fit; for ForteBio IgG KD Hu GARP-proTGFβ1 in solution (M) Avid: Table 10, same assay conditions as Table 9. An outline of the steps: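 Antibody loaded at 1 μg/mL onto anti-human Fc capture biosensors, then exposed to human GARP-proTGFβ1 at 100 nM in 1× kinetics buffer with 1000 rpm shaking. Association 3 min, dissociation 3 or 5 min; KD from 1:1 local full fit.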

The target of assay [4] is proTGFβ1 C4S (Homo sapiens, UniProt P01137, C33S). In words: Octet binding of immobilized cycle 2 antibodies to C4S antigen. The settings on record: antibody immobilized (loading sample). The source says:
A modified proTGFβ1 complex (proTGFβ1 C4S) in which the cysteine residue at position 4 of the pro-domain has been substituted with a serine residue (described in WO 2014/182676) was used to assess antibody binding to C4S antigen by Octet. Cycle 2 antibodies were immobilized and tested against 3 antigens. As shown in the Tables below, robust antibody binding to LTBP-1 proTGFβ1 antigen (Table 23) and proTGFβ1C4S antigen was observed (Table 24), while binding to LRRC33 proTGFβ1 antigen was not observed (Table 25).
In general terms: In BLI a coated tip is dipped into the sample, and binding shifts an interference pattern.

The mark [5] stands for this setting: Table 9, cycle 3, N.B. = non-binder under conditions of this assay.
Setting [6] is: N.B. = non-binder under conditions of this assay.
The mark [7] stands for this setting: Table 8, P.F. = Poor Fit, N.B. = Non-binder under conditions of this assay.

huLTBP1 proTGFβ1, sequence (P01137 30-390): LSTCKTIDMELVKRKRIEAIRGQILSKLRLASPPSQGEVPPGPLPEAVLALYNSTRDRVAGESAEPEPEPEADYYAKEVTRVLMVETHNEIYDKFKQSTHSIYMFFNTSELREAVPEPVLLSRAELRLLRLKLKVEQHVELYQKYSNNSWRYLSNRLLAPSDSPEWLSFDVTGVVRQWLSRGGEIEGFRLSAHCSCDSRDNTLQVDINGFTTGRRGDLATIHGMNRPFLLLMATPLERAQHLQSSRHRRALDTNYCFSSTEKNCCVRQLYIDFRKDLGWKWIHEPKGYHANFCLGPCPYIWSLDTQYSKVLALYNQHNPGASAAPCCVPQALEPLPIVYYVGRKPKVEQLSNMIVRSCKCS
huLTBP1 proTGFβ1, sequence (Q14766 347-1721 limits assumed): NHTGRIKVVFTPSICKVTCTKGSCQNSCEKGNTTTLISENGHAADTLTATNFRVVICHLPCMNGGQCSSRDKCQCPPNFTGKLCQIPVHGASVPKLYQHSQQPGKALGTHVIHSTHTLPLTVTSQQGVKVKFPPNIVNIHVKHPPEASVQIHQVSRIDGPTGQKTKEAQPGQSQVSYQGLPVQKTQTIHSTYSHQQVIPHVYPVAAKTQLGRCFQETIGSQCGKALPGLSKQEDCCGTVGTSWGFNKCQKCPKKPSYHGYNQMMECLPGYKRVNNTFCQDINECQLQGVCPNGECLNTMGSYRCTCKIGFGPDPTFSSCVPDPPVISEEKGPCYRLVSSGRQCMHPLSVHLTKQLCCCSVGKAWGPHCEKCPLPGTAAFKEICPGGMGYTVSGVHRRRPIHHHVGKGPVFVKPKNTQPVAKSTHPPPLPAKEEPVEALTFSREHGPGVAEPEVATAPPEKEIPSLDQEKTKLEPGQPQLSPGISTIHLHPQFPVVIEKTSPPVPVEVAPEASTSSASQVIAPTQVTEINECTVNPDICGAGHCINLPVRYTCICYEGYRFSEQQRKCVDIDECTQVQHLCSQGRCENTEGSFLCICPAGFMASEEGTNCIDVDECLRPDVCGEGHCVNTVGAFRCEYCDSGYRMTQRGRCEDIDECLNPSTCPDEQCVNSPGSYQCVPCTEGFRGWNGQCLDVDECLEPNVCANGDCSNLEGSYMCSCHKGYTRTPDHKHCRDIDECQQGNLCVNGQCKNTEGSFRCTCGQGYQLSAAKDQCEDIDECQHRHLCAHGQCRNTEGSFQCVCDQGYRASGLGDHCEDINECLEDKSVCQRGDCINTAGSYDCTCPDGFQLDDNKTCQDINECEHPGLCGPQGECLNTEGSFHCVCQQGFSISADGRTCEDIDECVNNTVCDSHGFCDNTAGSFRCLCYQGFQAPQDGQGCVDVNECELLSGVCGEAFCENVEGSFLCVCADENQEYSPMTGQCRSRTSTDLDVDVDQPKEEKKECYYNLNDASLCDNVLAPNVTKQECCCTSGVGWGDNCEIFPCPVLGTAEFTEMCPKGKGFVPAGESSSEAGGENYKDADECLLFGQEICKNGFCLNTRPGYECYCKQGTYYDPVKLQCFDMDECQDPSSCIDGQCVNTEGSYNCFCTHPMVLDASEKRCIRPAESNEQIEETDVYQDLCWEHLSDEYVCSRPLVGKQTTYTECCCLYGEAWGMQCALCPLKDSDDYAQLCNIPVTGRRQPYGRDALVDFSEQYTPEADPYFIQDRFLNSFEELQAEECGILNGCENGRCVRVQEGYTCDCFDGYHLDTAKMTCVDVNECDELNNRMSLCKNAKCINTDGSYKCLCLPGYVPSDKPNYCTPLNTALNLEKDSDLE
huGARP proTGFβ1, sequence (P01137 30-390): as the sequence (P01137 30-390) above
huGARP proTGFβ1, sequence (Q14392 18-627 partner limits assumed): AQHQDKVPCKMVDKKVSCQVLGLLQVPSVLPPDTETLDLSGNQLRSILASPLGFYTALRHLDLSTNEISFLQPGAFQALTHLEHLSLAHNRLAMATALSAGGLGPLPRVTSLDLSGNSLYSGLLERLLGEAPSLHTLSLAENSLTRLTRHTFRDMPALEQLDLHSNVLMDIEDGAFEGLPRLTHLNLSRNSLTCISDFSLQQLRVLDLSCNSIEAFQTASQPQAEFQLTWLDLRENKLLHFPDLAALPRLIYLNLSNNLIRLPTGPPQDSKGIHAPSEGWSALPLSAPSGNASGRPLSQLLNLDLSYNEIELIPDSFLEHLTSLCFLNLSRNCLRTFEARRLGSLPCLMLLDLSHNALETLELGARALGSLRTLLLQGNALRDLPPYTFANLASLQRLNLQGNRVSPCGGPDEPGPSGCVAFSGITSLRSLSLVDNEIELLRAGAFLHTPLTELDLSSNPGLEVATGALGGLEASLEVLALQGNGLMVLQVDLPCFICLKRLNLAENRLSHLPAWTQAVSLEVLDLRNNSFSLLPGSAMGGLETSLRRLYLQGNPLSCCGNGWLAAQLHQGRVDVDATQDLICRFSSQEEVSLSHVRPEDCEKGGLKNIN
huLTBP3 proTGFβ1, sequence (P01137 30-390): as the sequence (P01137 30-390) above
huLTBP3 proTGFβ1, sequence (Q9NS15 44-1303): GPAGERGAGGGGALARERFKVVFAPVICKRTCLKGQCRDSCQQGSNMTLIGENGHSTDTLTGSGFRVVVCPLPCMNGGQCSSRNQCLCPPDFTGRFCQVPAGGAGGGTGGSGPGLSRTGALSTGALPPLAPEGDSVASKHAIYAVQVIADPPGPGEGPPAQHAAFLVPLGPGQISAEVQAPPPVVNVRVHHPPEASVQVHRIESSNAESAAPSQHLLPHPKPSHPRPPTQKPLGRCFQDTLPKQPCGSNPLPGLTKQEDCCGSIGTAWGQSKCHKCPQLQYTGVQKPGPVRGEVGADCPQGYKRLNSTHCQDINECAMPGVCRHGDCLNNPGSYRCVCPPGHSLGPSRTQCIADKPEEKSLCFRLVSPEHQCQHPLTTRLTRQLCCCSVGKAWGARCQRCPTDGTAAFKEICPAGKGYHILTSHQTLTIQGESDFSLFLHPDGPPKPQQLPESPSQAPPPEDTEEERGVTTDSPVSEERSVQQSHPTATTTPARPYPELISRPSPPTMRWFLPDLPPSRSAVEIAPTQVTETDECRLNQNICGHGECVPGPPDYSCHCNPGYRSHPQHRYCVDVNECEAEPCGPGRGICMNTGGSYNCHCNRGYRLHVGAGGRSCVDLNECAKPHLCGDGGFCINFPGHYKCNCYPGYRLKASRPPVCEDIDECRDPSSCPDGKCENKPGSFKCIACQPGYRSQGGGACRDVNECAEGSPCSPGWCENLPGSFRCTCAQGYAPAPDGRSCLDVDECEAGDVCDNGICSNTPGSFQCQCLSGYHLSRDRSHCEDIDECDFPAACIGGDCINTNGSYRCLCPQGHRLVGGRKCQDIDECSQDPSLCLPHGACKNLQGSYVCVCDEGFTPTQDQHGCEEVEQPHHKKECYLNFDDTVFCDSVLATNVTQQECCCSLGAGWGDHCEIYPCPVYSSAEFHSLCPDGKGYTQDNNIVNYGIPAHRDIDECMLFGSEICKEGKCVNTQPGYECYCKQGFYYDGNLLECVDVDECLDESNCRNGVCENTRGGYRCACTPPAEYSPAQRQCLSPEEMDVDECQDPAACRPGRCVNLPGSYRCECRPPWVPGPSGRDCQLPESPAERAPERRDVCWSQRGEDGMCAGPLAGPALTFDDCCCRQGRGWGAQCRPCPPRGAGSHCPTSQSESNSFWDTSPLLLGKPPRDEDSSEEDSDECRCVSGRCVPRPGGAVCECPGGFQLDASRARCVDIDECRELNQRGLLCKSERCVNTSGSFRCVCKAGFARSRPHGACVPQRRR
proTGFβ1 C4S, sequence (P01137 30-390 C33S): as the sequence (P01137 30-390) above, with C4S counted along it

B1: SR-AB42: cycle 3 antibody, lineage SR-AB23; CDRs SEQ ID NO: 166-171; HCVR SEQ ID NO: 318, LCVR SEQ ID NO: 319 (antibody, V domains shown)
VH: QVQLVESGGGVVQPGRSLRLSCAASGFTFRSYVMHWVRQAPGKGLEWVAVISHEGSLKYYADSVKGRFTISRDNSKNTLYLQMNSLRAEDTAVYYCARPRIAARRGGFGYWGQGTLVTVSS
VL: NFMLTQPHSVSESPGKTVTISCTRSSGNIDNNYVQWYQQRPGSSPTTVIYEDNQRPSGVPDRFSGSIDSSSNSASLTISGLKTEDEADYYCQSYDYDTQGVVFGGGTKLTVL
With B1, in assay [1] (1:1 fit), the “Hu LTBP3-proTGFβ1 Kon” value was determined as 232000 M⁻¹ s⁻¹. Moreover, in assay [1], the “Hu LTBP3-proTGFβ1 Koff” value is 6e-05 s⁻¹. Moreover, in assay [2], the “Hu LTBP1-proTGFβ1 Kon” value amounted to 154000 M⁻¹ s⁻¹ and the “Hu LTBP1-proTGFβ1 Koff” value amounted to 6e-05 s⁻¹. Besides, the “ForteBio IgG KD Hu GARP-proTGFβ1 (M) Avid” value in assay [3] (setting [5]) is given as “N.B”. Also, the “ForteBio IgG KD Hu GARP-proTGFβ1 in solution (M) Avid” value in assay [3] (setting [6]) is “N.B”.

B2: SR-AB23: second-round (CDR-H3 mutagenesis) antibody, lineage SR-AB14; CDRs SEQ ID NO: 116-121 (antibody, V domains shown)
VH: QVQLVESGGGVVQPGRSLRLSCAASGFTFRSYVMHWVRQAPGKGLEWVAVISHEGSLKYYADSVKGRFTISRDNSKNTLYLQMNSLRAEDTAVYYCARPRIAARRGGFGYWGQGTLVTVSS
VL: NFMLTQPHSVSESPGKTVTISCTRSSGNIDNNYVQWYQQRPGSSPTTVIYEDNQRPSGVPDRFSGSIDSSSNSASLTISGLKTEDEADYYCQSYDSDNQGVVFGGGTKLTVL
As for B2, the “Affinity for human LTBP3 complexed with proTGFβ1” value in assay [1] is recorded as “single digit nM”. In assay [2], the “Response, binding to human LTBP-1 proTGFb1” value is on record as 0.3449 nm and the “Affinity for human LTBP1 complexed with proTGFβ1” value is “single digit nM”. Further, the “ForteBio IgG KD Hu GARP-proTGFβ1 (M) Avid” value in assay [3] (setting [7]) is “N.B”. Moreover, the “Response, binding to human TGFb1 C4S” value in assay [4] was 0.2263 nm.

B3: SR-AB22: second-round (CDR-H3 mutagenesis) antibody, lineage SR-AB14; CDRs SEQ ID NO: 108-113 (antibody, V domains shown)
VH: QVQLVESGGGVVQPGRSLRLSCAASGFTFRSYVMHWVRQAPGKGLEWVAVISHEGSLKYYADSVKGRFTISRDNSKNTLYLQMNSLRAEDTAVYYCAVPRIAARRGGFGYWGQGTLVTVSS
VL: NFMLTQPHSVSESPGKTVTISCTRSSGNIDNNYVQWYQQRPGSSPTTVIYEDNQRPSGVPDRFSGSIDSSSNSASLTISGLKTEDEADYYCQSYDSDNQGVVFGGGTKLTVL
Regarding B3, in assay [1], the “Affinity for human LTBP3 complexed with proTGFβ1” value is recorded as “single digit nM”. Moreover, in assay [1] (Table 8, 1:1 fit, P.F. = Poor Fit, N.B. = Non-binder under conditions of this assay), the “ForteBio IgG KD Hu LTBP3-proTGFβ1 (M) Avid” value is “P.F”. In assay [2], the “Response, binding to human LTBP-1 proTGFb1” value is given as 0.4317 nm and the “Affinity for human LTBP1 complexed with proTGFβ1” value is listed as “single digit nM”. Moreover, the “ForteBio IgG KD Hu GARP-proTGFβ1 (M) Avid” value in assay [3] (setting [7]) was “P.F”. In addition, the “Response, binding to human TGFb1 C4S” value in assay [4] came to 0.2937 nm.

B4: SR-AB63: cycle 3 antibody, lineage SR-AB26; CDRs SEQ ID NO: 292-297; HCVR SEQ ID NO: 360, LCVR SEQ ID NO: 361 (antibody, V domains shown)
VH: QLQLQESGPGLVKPSETLSLTCTVSGGSIRSSSYYWGWIRQPPGKGLEWIGSISYSATTYYNPSLKSRVTISVDTSKNQFSLKLSSVTAADTAVYYCAGDPSYDSIAGMQVWGQGTTVTVSS
VL: DIQLTQSPSSLSASVGDRVTITCRASQSISSYLNWYQQKPGKAPKLLIYAASNLQSGVPSRFSGSGSGTDFTLTISSLQPEDFATYYCQQSFDWPLTFGGGTKVEIK
For the molecule B4, the “Hu LTBP3-proTGFβ1 Kon” value in assay [1] (1:1 fit) came to 159000 M⁻¹ s⁻¹. Also, in assay [1], the “Hu LTBP3-proTGFβ1 Koff” value stood at 7.84e-05 s⁻¹. For the same molecule, in assay [2], the “Hu LTBP1-proTGFβ1 Kon” value turned out to be 118000 M⁻¹ s⁻¹ and the “Hu LTBP1-proTGFβ1 Koff” value amounted to 7.24e-05 s⁻¹. In addition, the “ForteBio IgG KD Hu GARP-proTGFβ1 (M) Avid” value in assay [3] (setting [5]) is on record as “N.B”. Moreover, the “ForteBio IgG KD Hu GARP-proTGFβ1 in solution (M) Avid” value in assay [3] (setting [6]) is recorded as “N.B”.
